Drawing on patent publication US20210332339A1, this text covers cleavage activity of the reporter, SSA reporter assay, cleavage activity of the target sequence (ZFL1-ZFA36) on the reporter, SSA reporter assay, relative to ZFA36-FokI and cleavage activity of the reporter, SSA reporter assay, relative to the FokI-ND homodimer type for two substances.

For experiment [1], the target named is RRR-type mutant ZFA36-FokI-ND (ZFA36 zinc finger array, TGAAARA linker, FokI nuclease domain D483R/H537R) (UniProt P14870). In words: cell-based or functional assay.
The target in experiment [2] is RRR-type mutant ZFA36-ND1 (ZFA36 zinc finger array, TGAAARA linker, ND1 D489R/N543R) (Bacillus SGD-V-76). The experiment is described as follows: cell-based or functional assay.

Chain of RRR-type mutant ZFA36-FokI-ND (ZFA36 zinc finger array, TGAAARA linker, FokI nuclease domain D483R/H537R) (P14870 other isoform, or with tags, fused parts or gaps D483R H537R D483R H537R): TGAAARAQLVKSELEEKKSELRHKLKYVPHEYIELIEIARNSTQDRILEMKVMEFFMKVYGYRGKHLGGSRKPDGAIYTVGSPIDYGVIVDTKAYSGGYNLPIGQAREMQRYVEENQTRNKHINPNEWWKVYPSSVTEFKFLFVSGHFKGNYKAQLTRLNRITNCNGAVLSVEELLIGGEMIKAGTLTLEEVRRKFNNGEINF

“DDD-type mutant ZFL1-ND1 (hPGRN_ZFL1 zinc finger array, TGAAARA linker, ND1 R493D/N502D) (enzyme)” came in with a cleavage activity of the reporter, SSA reporter assay in experiment [1] of 80%. The cleavage activity of the target sequence (ZFL1-ZFA36) on the reporter, SSA reporter assay, relative to ZFA36-FokI in experiment [2] is 1.6 times.
With “DDD-type mutant ZFL1-FokI-ND (hPGRN_ZFL1 zinc finger array, TGAAARA linker, FokI nuclease domain R487D/N496D) (from UniProt P14870 384-579) (enzyme)”, in experiment [1], the cleavage activity of the target sequence (ZFL1-ZFA36) on the reporter, SSA reporter assay, relative to ZFA36-FokI came out at 60%. In addition, in experiment [2], the cleavage activity of the reporter, SSA reporter assay, relative to the FokI-ND homodimer type came out at 60%.
